Assay results reported in paper PMC10035430.

Columns and labels:
[1] = biological target: GWS1B form II RubisCO (CbbM) from an uncultivated Gallionellaceae species (uncultivated Gallionellaceae sp. (groundwater aquifer metagenome)); test: SEC-MALS
[2] = biological target: GWS1B form II RubisCO (CbbM) from an uncultivated Gallionellaceae species (uncultivated Gallionellaceae sp. (groundwater aquifer metagenome)); test: crystal structure
[3] = biological target: GWS1B form II RubisCO (CbbM) from an uncultivated Gallionellaceae species (uncultivated Gallionellaceae sp. (groundwater aquifer metagenome)); test: SEC

Measured: stoichiometry N

GWS1B form II RubisCO (CbbM) from an uncultivated Gallionellaceae species (enzyme)
6: all assays above
